From patent publication US20120014950A1, “Antibodies That Specifically Bind to DR3” (Xencor, Inc., priority 2010, published 2012) come the findings set out here.

The test system of one experiment is primary human T cells. Description: Primary human T cell assay (proliferation, cytokine secretion). It is filed as cell-based. How it is done:
A primary human T cell assay can be performed using standard methods known in the art. Briefly, primary human T cells are incubated with 100 ng/mL human TL1A ligand and appropriate concentrations of the antibody molecules to be tested for 72 hours. This incubation is followed by a 24 hour incubation with 5 ng/mL IL-2. Proliferation is measured by a standard luminescent protocol. The amount of cytokine secreted is determined by standard methods in the art.
A primary human T cell assay was performed to determine the effect of the 11H08-Fab-HSA on proliferation and the secretion of IFNγ or GM-CSF from cells treated with TL1A. […] 3 μg/mL 11H08-Fab-HSA, 3 μg/mL hDR3-Fc, or 3 μg/mL full length 11H08 immunoglobulin were used in this experiment. Results were compared to a set of cells treated only with media and cells that were treated only with 100 ng/mL TL1A, as indicated.

Experiment [1] deals with T1, human DR3 (Homo sapiens, UniProt Q93038).
T1 sequence (Q93038 25-417): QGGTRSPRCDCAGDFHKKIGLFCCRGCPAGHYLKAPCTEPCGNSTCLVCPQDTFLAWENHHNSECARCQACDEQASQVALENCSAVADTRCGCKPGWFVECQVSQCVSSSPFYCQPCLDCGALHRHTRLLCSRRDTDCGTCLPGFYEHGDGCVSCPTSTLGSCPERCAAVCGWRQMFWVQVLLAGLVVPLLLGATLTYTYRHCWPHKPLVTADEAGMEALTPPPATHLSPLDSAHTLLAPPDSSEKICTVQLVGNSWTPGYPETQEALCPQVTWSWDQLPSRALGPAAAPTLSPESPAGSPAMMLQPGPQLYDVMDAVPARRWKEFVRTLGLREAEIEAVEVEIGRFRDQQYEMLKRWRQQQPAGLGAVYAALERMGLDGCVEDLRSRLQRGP
The experiment can be described thus: TF-1 assay (cell viability, cycloheximide, Cell Titer Glo). The format is cell-based. The arrangement: endogenous in cells; host or cells: TF-1 (premyeloid). Conditions: TF-1 cells, 10 ng/mL hTL1A and cycloheximide; luminescence. How it is done: Treatment of TF-1 cells with human TL1A (the ligand for DR3) in the presence of cycloheximide induces cell death (Migone et al., Immunity 16:479-492 (2002)). A TF-1 assay was used to test the ability of 11H08 to block TL1A activity through the DR3 receptor.
A TF-1 assay can be performed according to methods known in the art. Briefly, premyeloid TF-1 cells are maintained in 10% FBS (fetal bovine serum), 1×RPMI, 1% Pen-Strep with Glutamine, and 2 ng/mL GM-CSF. The cells are grown until log phase, washed three times in PBS, and incubated with the antibodies to be tested for one hour. After this pre-incubation, between 50,000 and 100,000 cells are seeded per well. The cells are combined with 10 ng/mL hTL1A, 10 μg/mL cycloheximide (Sigma-Aldrich, cat #C1988-1G) and the antibodies to be tested and then incubated for 24 to 72 hours. Cell viability is measured using Cell Titer Glo (Promega, cat #G7570). This assay allows cell viability to be determined by measuring the luminescent signal which is proportional to the amount of ATP present. The ATP is indicative of metabolically active cells and higher luminescence signals reflect greater cell viability.
In order to test the effect of 11H08-scFv-HSA and the humanized anti-DR3-Fab molecules, a TF-1 assay was used to test the ability of these various anti-DR3 fragments to block TL1A induced activity. The TF-1 assay was performed as indicated above in Example 5, but where the various anti-DR3 fragments were used instead of the whole 11H08 immunoglobulin as described.
In general terms: In ATP-based viability assays light output follows the ATP content of the culture.

Experiment [2] has as its target T1, human DR3. Described as above. The format is cell-based. Set-up: endogenous in cells; host or cells: TF-1 (premyeloid). Conditions: TF-1 cells with cycloheximide; luminescence.
Experiment [3] has as its target T1, human DR3. The experiment can be described thus: TL1A binding inhibition assay (flow cytometry). Set-up: expressed in transfected cells; host or cells: HEK293F (transient). Conditions: HEK293F cells transiently expressing human DR3, 1 μg/mL human TL1A. How it is done:
The anti-DR3 monoclonal antibody 11H08 was assayed for its ability to inhibit human TL1A binding to human DR3 using techniques known to those skilled in the art. Briefly, HEK293F cells transiently expressing human DR3 were incubated with 1 μg/mL of human TL1A in the presence of either an unrelated antibody (mIgG1) as an isotype control that was known not to bind TL1A or DR3, or an anti-DR3 monoclonal antibody (11H08), for 20 minutes at room temperature. Binding was detected using an anti-TL1A-biotin polyclonal antibody followed by Streptavidin PE. The ability of the anti-DR3 monoclonal antibody to inhibit binding of TL1A to DR3 was measured by flow cytometry.
(In general: In flow cytometry, cells or beads pass a laser one at a time.)

The mark [4] stands for this setting: 100 ng/mL hTL1A, 3 μg/mL test molecule.

“Also recorded” adds a separate entry of the source.

B1: hDR3-Fc: human DR3-Fc fusion protein, known to bind TL1A and inhibit activity (protein)
chain: QGGTRSPRCDCAGDFHKKIGLFCCRGCPAGHYLKAPCTEPCGNSTCLVCPQDTFLAWENHHNSECARCQACDEQASQVALENCSAVADTRCGCKPGWFVECQVSQCVSSSPFYCQPCLDCGALHRHTRLLCSRRDTDCGTCLPGFYEHGDGCVSCPTSTLGSCPERCAAVCGWRQ
modifications: left off: a dimerising Fc or GST
Turning to B1, in the experiment with primary human T cells (setting [4]), the TL1A-induced cell proliferation entry was “inhibited” and the “TL1A-induced cytokine secretion (IFNγ, GM-CSF)” value is “inhibited”.

B2: H5L2-Fab: humanized anti-DR3 Fab, VH H5 (SEQ ID NO:17), VL L2 (SEQ ID NO:22, Leu at Kabat 104) (antibody, V domains shown)
VH: EVQLLQSGAEVKKPGASVKVSCKASGFTFTNYAMSWVRQAPGQRLEWVATITSGGSYIYYLDSVKGRFTISRDNAKSTLHLQMNSLRAEDTAVYNCARRKDGNYYYAMDYWGQGTTVTVSS
VL: DIVLTQSPSSLSASVGDRVTITCRASESVDSYGNSFIHWYQQKPGQPPKLLIYRASNLESGIPARFSGSGSRTDFTLTISSLQPEDFATYYCQQSYEDPWTFGGGTKXEIK
modifications: Fab constant domains; humanized murine antibody
On to B2, for which the “inhibition of TL1A-induced apoptosis (TF-1 cell viability)” value (“inhibition of TL1A-induced apoptosis” for short) with human DR3 [1] is “inhibited TL1A-induced apoptosis in TF-1 cells”.

B3: 11H08: mouse anti-human DR3 monoclonal antibody, isotype IgG1κ, from hybridoma 11H08; VH SEQ ID NO:7, VL SEQ ID NO:20 (antibody, listed as Mus musculus, V domains shown)
VH: EVMLVESGGGLVKPGGSLKLSCAASGFTFTNYAMSWVRQTPEKRLEWVATITSGGSYIYYLDSVKGRFTISRDNAKSTLYLQMSSLRSEDTAIYNCARRKDGNYYYAMDYWGQGTSVTVSS
VL: DIVLTQSPASLAVSLGQRATISCRASESVDSYGNSFIHWYQQKAGQPPKLLIYRASNLESGIPARFSGSGSRTDFTLTINPVEADDVATYYCQQSYEDPWTFGGGTKLEIK
Consider B3, for which the “TF-1 cell viability / apoptosis induction (agonist, TL1A-like activity)” value in the experiment with human DR3 [2] is “activated the DR3 receptor, thereby inducing TL1A-like activity”. In addition, the “inhibition of human TL1A binding to human DR3” value in the experiment with human DR3 [3] is “inhibited human TL1A binding to the human DR3 receptor”. In addition, the “proliferation and cytokine secretion (agonist activity)” value in the experiment on primary human T cells (3 μg/mL antibody alone) is “induced TL1A-like activity”.

B4: H1L2-Fab: humanized anti-DR3 Fab, VH H1 (SEQ ID NO:9), VL L2 (SEQ ID NO:22, Leu at Kabat 104) (antibody, V domains shown)
VH: EVQLVESGGGLVKPGGSLRLSCAASGFTFTNYAMSWVRQAPGQRLEWVSTITSGGSYIYYLDSVKGRFTISRDNAKSTLYLQMNSLRAEDTAVYNCARRKDGNYYYAMDYWGQGTTVTVSS
VL: DIVLTQSPSSLSASVGDRVTITCRASESVDSYGNSFIHWYQQKPGQPPKLLIYRASNLESGIPARFSGSGSRTDFTLTISSLQPEDFATYYCQQSYEDPWTFGGGTKXEIK
modifications: Fab constant domains; humanized murine antibody
With B4, the “inhibition of TL1A-induced apoptosis” value with human DR3 [1] is listed as “inhibited TL1A-induced apoptosis in TF-1 cells”.

B5: 11H08-Fab: Fab of 11H08 VH/VL (SEQ ID NOs:7, 20) with human IgG1 CH1 and Cκ; parental anti-DR3 molecule (antibody, listed as Mus musculus, V domains shown)
VH: EVMLVESGGGLVKPGGSLKLSCAASGFTFTNYAMSWVRQTPEKRLEWVATITSGGSYIYYLDSVKGRFTISRDNAKSTLYLQMSSLRSEDTAIYNCARRKDGNYYYAMDYWGQGTSVTVSS
VL: DIVLTQSPASLAVSLGQRATISCRASESVDSYGNSFIHWYQQKAGQPPKLLIYRASNLESGIPARFSGSGSRTDFTLTINPVEADDVATYYCQQSYEDPWTFGGGTKLEIK
modifications: human IgG1 CH1 and Ckappa constant domains
notes: parental anti-DR3 molecule
With B5, the “inhibition of TL1A-induced apoptosis” value with human DR3 [1] is given as “prevented TL1A-induced apoptosis; also recorded: inhibited TL1A-induced apoptosis in TF-1 cells”.
